From US20030228306A1 come the findings set out here.

Assay [1] deals with CC-chemokine receptor CCR5 (UniProt P51681). Briefly: cell-based or functional assay.
For assay [2] the target is unchanged. Briefly: flow cytometry on mitogen-stimulated PBMC, m.f.i. On the technique in general: In flow cytometry, cells or beads pass a laser one at a time.

UniProt P51681, sequence (P51681 whole entry): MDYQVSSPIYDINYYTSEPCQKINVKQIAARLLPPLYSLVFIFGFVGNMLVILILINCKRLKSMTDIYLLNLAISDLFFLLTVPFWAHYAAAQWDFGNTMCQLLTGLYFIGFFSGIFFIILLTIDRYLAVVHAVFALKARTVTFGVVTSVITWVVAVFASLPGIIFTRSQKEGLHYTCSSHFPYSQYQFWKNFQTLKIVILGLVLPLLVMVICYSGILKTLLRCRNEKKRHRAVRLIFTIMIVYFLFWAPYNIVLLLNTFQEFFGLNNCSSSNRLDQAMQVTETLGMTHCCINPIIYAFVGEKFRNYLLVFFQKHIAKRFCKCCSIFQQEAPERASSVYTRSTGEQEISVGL

As for anti-CCR5 mAb 2D7 (antibody), in assay [1], the IC50, inhibition of JR-FL entry (luciferase entry assay) was found to be 0.026 µg/mL; the IC50, inhibition of fusion between PM1 cells and HeLa-EnvJR-FL+ cells (RET assay) was 1.6 µg/mL; the K (equal to the IC50 value), inhibition of cell-cell fusion, median effect fit (RET assay) amounted to 0.36 µg/mL.

In the case of anti-CCR5 monoclonal antibody PA14, in assay [1], the IC50, inhibition of JR-FL entry (luciferase entry assay) worked out at 0.024 µg/mL; the IC50, inhibition of fusion between PM1 cells and HeLa-EnvJR-FL+ cells (RET assay) came to 1.7 µg/mL; the IC50 for calcium influx inhibition, ratio against 2D7 was 8 fold. The substance also displayed a fold difference in m.f.i. against PA9 in assay [2] of 7 fold.
